# B1: HDV Ribozyme (parent)
# chain: GGCCGGCAUGGUCCCAGCCUCCUCGCUGGCGCCGGCUGGGCAACAUUCCGAGGGGACCGUCCCCUCGGUAAUGGCGAAUGGGACCCA
# Variants of: B1
# Assay: self-cleavage, relative activity (ratio to wild type); higher = more cleavage; co-transcriptional
row,Variant,self-cleavage
1,C41A G76C,1.06
2,C22U C44G,0.095
3,G34C A78C,0.0898
4,G11A A45G,0.403
5,U46G C57G,0.804
6,G40U C49U,0.817
7,C75U C85U,0.138
8,G11C C26U,0.895
9,C57G U72G,0.733
10,C14G C48U,0.831
11,U20G G29U,0
12,C14A U69A,0.997
13,G29C U37G,0.128
14,A45U G50U,0.793
15,G1U G29A,0.336
16,A8G C57A,0.779
17,C19U C57U,0.165
18,G29C G80U,0.0953
19,U65C G82C,0.252
20,C44G U46A,0.9
21,C21G U27A,0
22,U23C A71G,0.9
23,A56U C58A,1.16
24,U27A A51G,0.997

row,Variant,self-cleavage
1,A16U U46G,0.437
2,C22U G34U,0.145
3,C15G G25A,0.161
4,C4U,0.758
5,C19G G67C,0.0287
6,U23G C84A,0.712
7,C3A G40U,0.256
8,C14A G54A,0.751
9,G2A A83U,0.119
10,G31C U79A,0.17
11,G1A U72G,0.0665
12,A45U C66G,0.919
13,A43C A56U,0.584
14,G38U G50C,0.225
15,G31U G40A,0.359
16,U12G G17C,0.192
17,C48U C63U,0.969
18,C26U A45C,0.776
19,G2A A78C,0.0432
20,U23C C84U,0.831
21,U69C A71U,1.01
22,C7G C19A,0.0831
23,G55U C66G,0.901
24,C49U C66G,0.892

row,Variant,self-cleavage
1,C32U C66U,0.926
2,U72A C75A,0.222
3,C33U C62G,0.635
4,C22U U23C,0.68
5,G5A C62G,0.0594
6,G31U A42C,0.131
7,C22U U47G,0.58
8,C41U A51C,0.916
9,C13A C49U,0.119
10,C14G U60A,0.831
11,C15G G73A,0.162
12,C15A G81A,0.57
13,A16U A70C,0.538
14,G53A G54U,0.962
15,C15G U27C,0.277
16,C62A A87C,0.946
17,G54C G73C,0.502
18,G29A G53A,0.217
19,C3U G11C,0.191
20,C41A G53U,0.969
21,G38U C63U,0.24
22,C4A G25A,0.089
23,U9G G54C,0.831
24,C4G C32A,0.0692

row,Variant,self-cleavage
1,G29U C61G,0.203
2,G38U C66G,0.0764
3,A8G G55A,0.655
4,C22A U46G,0.172
5,G34U G39U,0.115
6,G25C C58G,0.161
7,C7A G59C,0.578
8,C61G C75A,0.166
9,C7U C44U,0.374
10,G2U C33A,0.043
11,C3G G55U,0.821
12,G10U U72C,0.193
13,G31A U72A,0.0292
14,U27A C33G,0.287
15,G28A C41G,0.151
16,U12C C48G,0.185
17,C24U A77U,0.0791
18,A8G C22G,0.0489
19,C4U A51U,0.85
20,C36U C86A,0.747
21,G2C G67U,0.026
22,A42C C48G,0.229
23,C32U A71U,0.565
24,C30U C58G,0.569

row,Variant,self-cleavage
1,G73U A87G,0.452
2,C13A G17A,0.0639
3,G2C A83C,0.0302
4,A8C G73A,0.256
5,C41A C85U,0.849
6,A43C G76A,0.554
7,G39U C64U,0.597
8,G1U U65C,0.399
9,A56G C75U,0.17
10,G11C C58G,0.369
11,C24G G31C,0.0563
12,C26U G80A,0.897
13,U37A G38C,0.0923
14,A51U A56G,1.11
15,U47G C49G,0.87
16,G1C G38C,0
17,C49U C85A,1.17
18,G35U A70G,0.554
19,U12C A43C,0.0831
20,U79C C84A,0.462
21,A43G G52A,0.577
22,G38U G39C,0
23,C44A U69A,0.727
24,C19G G38A,0.0511

row,Variant,self-cleavage
1,C32U C85U,0.725
2,U47A C84U,0.735
3,G34A U65C,0.141
4,C14U G67A,1.09
5,C32U U60A,0.782
6,A70G G80C,0.104
7,C3U A56C,0.675
8,G50A U69C,0.688
9,C62U C86U,0.845
10,C4U U79G,0.185
11,G28A C86U,0.0369
12,C15U C75A,0.0326
13,G53U C61U,0.994
14,G2U C14G,0.0354
15,U9A A56C,1.16
16,C18A U72A,0.0504
17,G1A G29A,0.0615
18,G40U G50U,1.01
19,C15G A77U,0.158
20,G35A C62G,0.448
21,A43G C49U,0.469
22,A16G C63A,1.03
23,C4G G55A,0.305
24,U23A,0.985

row,Variant,self-cleavage
1,G17A C22U,0.194
2,C58G C64U,1.08
3,G40U A70C,0.391
4,C4U G6A,0.532
5,C22G G50A,0.0504
6,C3G G5U,0.119
7,C30G G81C,0.032
8,C48A C66U,0.988
9,G73C G80C,0.109
10,U37G G74U,0.213
11,G54A C57G,0.903
12,A43C G68U,0.264
13,U9G A77U,0.604
14,A71C G81U,0.17
15,C3U U60A,0.769
16,G29U A42G,0.148
17,U9A C36A,0.122
18,U72A G82U,0.225
19,G28A G50A,0.0906
20,A42U U72C,0.508
21,C44G G52A,0.636
22,A8C G52C,0.957
23,A8C C41G,0.457

# — the RNAGym collection of RNA variant scans (doi:10.7554/elife.80360)
